These results are taken from PMC10397247.

In test [1] the target is T1, O12-bS.
T1 chain: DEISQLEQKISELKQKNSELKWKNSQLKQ
The experiment in a line: two-hybrid library CCNG1.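 Also: natural log of median RNA to DNA barcode read ratio; higher means stronger binding.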

Test [2] addresses T2, O13-bS.
T2 chain: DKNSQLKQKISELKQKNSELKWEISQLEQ
The test can be described thus: two-hybrid library CCNG1.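 Also: natural log of median RNA to DNA barcode read ratio; higher means stronger binding.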

In test [3] the target is T3, O14-bS.
T3 chain: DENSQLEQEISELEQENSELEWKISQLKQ
The test can be described thus: two-hybrid library CCNG1.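 Also: natural log of median RNA to DNA barcode read ratio; higher means stronger binding.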

In test [4] the target is T4, O15-bS.
T4 chain: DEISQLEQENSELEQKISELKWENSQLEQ
The test can be described thus: two-hybrid library CCNG1.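 Also: natural log of median RNA to DNA barcode read ratio; higher means stronger binding.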

The target of test [5] is T5, O16-bS.
T5 chain: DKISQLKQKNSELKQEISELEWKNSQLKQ
The test can be described thus: two-hybrid library CCNG1.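 Also: natural log of median RNA to DNA barcode read ratio; higher means stronger binding.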

Test [6] concerns the target T6, O2-bS.
T6 chain: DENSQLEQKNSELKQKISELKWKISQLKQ
The test can be described thus: two-hybrid library CCNG1.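 Also: natural log of median RNA to DNA barcode read ratio; higher means stronger binding.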

Test [7] concerns the target T7, O3-bS.
T7 chain: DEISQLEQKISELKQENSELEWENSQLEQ
The experiment in a line: two-hybrid library CCNG1.

Test [8] addresses T8, O4-bS.
T8 chain: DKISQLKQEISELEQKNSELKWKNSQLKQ
The test can be described thus: two-hybrid library CCNG1.

Test [9] addresses T9, O5-bS.
T9 chain: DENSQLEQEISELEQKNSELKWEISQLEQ
The test can be described thus: two-hybrid library CCNG1.

The target in test [10] is T10, O6-bS.
T10 chain: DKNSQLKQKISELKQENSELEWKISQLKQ
The test can be described thus: two-hybrid library CCNG1.

Test [11] has as its target T11, O7-bS.
T11 chain: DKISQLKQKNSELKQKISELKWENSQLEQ
The experiment in a line: two-hybrid library CCNG1.

Test [12] deals with T12, O8-bS.
T12 chain: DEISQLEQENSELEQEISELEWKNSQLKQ
The experiment in a line: two-hybrid library CCNG1.

Test [13] addresses T13, O9-bS.
T13 chain: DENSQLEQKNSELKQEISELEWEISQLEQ
The test can be described thus: two-hybrid library CCNG1.

For test [14], the target named is T14, 4H384-AA.
T14 chain: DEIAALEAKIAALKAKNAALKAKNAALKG
The test can be described thus: two-hybrid library CCmax.

For test [15], the target named is T15, 4H3865-AA.
T15 chain: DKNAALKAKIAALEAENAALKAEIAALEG
The experiment in a line: two-hybrid library CCmax. To be noted: mean of both orientations.

Test [16] has as its target T16, 4H3905-AA.
T16 chain: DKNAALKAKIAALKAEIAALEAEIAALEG
The test can be described thus: two-hybrid library CCmax. To be noted: mean of both orientations.

Test [17] addresses T17, 4H4038-AA.
T17 chain: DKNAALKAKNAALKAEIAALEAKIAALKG
The test can be described thus: two-hybrid library CCmax. The settings on record: mean of both orientations.

Test [18] has as its target T18, 4H43-AA.
T18 chain: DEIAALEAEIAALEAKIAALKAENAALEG
The experiment in a line: two-hybrid library CCmax. The settings on record: mean of both orientations.

For test [19], the target named is T19, 4H451-AA.
T19 chain: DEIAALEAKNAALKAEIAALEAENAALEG
The test can be described thus: two-hybrid library CCmax. To be noted: mean of both orientations.

In test [20] the target is T20, 4H510-AA.
T20 chain: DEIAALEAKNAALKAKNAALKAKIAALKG
The test can be described thus: two-hybrid library CCmax. To be noted: mean of both orientations.

Test [21] concerns the target T21, 4H697-AA.
T21 chain: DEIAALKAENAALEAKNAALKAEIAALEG
The experiment in a line: two-hybrid library CCmax. To be noted: mean of both orientations.

Test [22] has as its target T22, 4H982-AA.
T22 chain: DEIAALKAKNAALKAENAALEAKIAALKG
The test can be described thus: two-hybrid library CCmax. To be noted: mean of both orientations.

Test [23] deals with T23, 4H_APH.
T23 chain: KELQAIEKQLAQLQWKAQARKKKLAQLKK
The experiment in a line: two-hybrid library CCmax. To be noted: mean of both orientations.

In test [24] the target is T24, 4H_BCR.
T24 chain: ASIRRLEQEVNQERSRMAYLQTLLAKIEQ
The test can be described thus: two-hybrid library CCmax. To be noted: mean of both orientations.

Test [25] has as its target 4H_GCN4. The experiment in a line: two-hybrid library CCmax.
Test [26] addresses GCN2_T. The experiment in a line: two-hybrid library CCmax. The settings on record: mean of both orientations.
The target of test [27] is T25, O1-AA.
T25 chain: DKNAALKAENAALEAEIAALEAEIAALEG
The experiment in a line: two-hybrid library CCmax. To be noted: mean of both orientations.

Test [28] has as its target T26, O11-AA.
T26 chain: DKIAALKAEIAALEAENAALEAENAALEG
The experiment in a line: two-hybrid library CCmax. The settings on record: mean of both orientations.

In test [29] the target is T27, O13-AA.
T27 chain: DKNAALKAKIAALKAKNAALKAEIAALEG
The test can be described thus: two-hybrid library CCmax. To be noted: mean of both orientations.

Test [30] has as its target T28, O14-AA.
T28 chain: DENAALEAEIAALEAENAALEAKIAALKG
The test can be described thus: two-hybrid library CCmax. The settings on record: mean of both orientations.

In test [31] the target is T29, O2-AA.
T29 chain: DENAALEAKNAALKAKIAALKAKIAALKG
The experiment in a line: two-hybrid library CCmax. The settings on record: mean of both orientations.

Test [32] addresses T30, O3-AA.
T30 chain: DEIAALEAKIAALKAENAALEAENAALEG
The test can be described thus: two-hybrid library CCmax. The settings on record: mean of both orientations.

Test [33] deals with T31, O4-AA.
T31 chain: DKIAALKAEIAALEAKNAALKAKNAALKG
The test can be described thus: two-hybrid library CCmax. The settings on record: mean of both orientations.

The target in test [34] is T32, O5-AA.
T32 chain: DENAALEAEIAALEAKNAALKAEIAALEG
The experiment in a line: two-hybrid library CCmax. To be noted: mean of both orientations.

Test [35] addresses T33, O6-AA.
T33 chain: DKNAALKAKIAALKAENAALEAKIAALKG
The test can be described thus: two-hybrid library CCmax. To be noted: mean of both orientations.

The target of test [36] is T34, O7-AA.
T34 chain: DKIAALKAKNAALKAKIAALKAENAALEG
The experiment in a line: two-hybrid library CCmax. To be noted: mean of both orientations.

The target of test [37] is T35, O8-AA.
T35 chain: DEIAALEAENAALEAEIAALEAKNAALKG
The test can be described thus: two-hybrid library CCmax. To be noted: mean of both orientations.

Test [38] concerns the target T36, P10-AA.
T36 chain: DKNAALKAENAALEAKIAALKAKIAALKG
The test can be described thus: two-hybrid library CCmax. The settings on record: mean of both orientations.

The target in test [39] is T37, P9-AA.
T37 chain: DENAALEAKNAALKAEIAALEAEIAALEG
The experiment in a line: two-hybrid library CCmax. The settings on record: mean of both orientations.

Test [40] addresses T38, O12-bP.
T38 chain: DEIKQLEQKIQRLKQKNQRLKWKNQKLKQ
The test can be described thus: two-hybrid library CCNG1.

Test [41] has as its target T39, O13-bP.
T39 chain: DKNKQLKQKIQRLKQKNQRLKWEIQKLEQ
The test can be described thus: two-hybrid library CCNG1.

The target in test [42] is T40, O14-bP.
T40 chain: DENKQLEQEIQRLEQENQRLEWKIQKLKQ
The test can be described thus: two-hybrid library CCNG1.

Test [43] addresses T41, O15-bP.
T41 chain: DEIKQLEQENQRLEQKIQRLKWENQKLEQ
The experiment in a line: two-hybrid library CCNG1.

The target of test [44] is T42, O16-bP.
T42 chain: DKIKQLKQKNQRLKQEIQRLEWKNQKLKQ
The experiment in a line: two-hybrid library CCNG1.

Test [45] deals with T43, O2-bP.
T43 chain: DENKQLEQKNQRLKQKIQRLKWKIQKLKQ
The experiment in a line: two-hybrid library CCNG1.

Test [46] has as its target T44, O3-bP.
T44 chain: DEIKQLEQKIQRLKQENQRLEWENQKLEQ
The test can be described thus: two-hybrid library CCNG1.

Test [47] addresses T45, O4-bP.
T45 chain: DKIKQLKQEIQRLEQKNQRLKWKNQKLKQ
The test can be described thus: two-hybrid library CCNG1.

Test [48] deals with T46, O5-bP.
T46 chain: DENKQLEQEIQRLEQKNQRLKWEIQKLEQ
The experiment in a line: two-hybrid library CCNG1.

Test [49] deals with T47, O6-bP.
T47 chain: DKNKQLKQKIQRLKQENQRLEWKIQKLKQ
The test can be described thus: two-hybrid library CCNG1.

Test [50] addresses T48, O7-bP.
T48 chain: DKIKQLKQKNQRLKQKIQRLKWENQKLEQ
The test can be described thus: two-hybrid library CCNG1.

The target of test [51] is T49, O8-bP.
T49 chain: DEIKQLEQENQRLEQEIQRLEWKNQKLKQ
The test can be described thus: two-hybrid library CCNG1.

Test [52] deals with T50, O9-bP.
T50 chain: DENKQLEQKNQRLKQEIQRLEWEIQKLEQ
The test can be described thus: two-hybrid library CCNG1.

Test [53] has as its target T51, 4H1406-bH.
T51 chain: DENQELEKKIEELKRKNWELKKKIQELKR
The test can be described thus: two-hybrid library CCNG1.

Test [54] has as its target T52, 4H3592-bH.
T52 chain: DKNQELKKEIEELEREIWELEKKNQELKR
The test can be described thus: two-hybrid library CCNG1.

Test [55] deals with T53, 4H3601-bH.
T53 chain: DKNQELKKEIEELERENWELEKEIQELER
The test can be described thus: two-hybrid library CCNG1.

Test [56] concerns the target T54, 4H3907-bH.
T54 chain: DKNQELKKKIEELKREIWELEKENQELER
The experiment in a line: two-hybrid library CCNG1.

The target in test [57] is T55, 4H4038-bH.
T55 chain: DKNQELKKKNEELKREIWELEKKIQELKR
The experiment in a line: two-hybrid library CCNG1.

Sequence of 4H_GCN4 (chain, as listed by the source): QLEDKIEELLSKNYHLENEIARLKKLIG

With DEISQLEQKISELKQKNSELKWKNSQLKQ [O12-bS], the interaction score in test [1] was -0.402; in [2], -2.21; in test [3], -2.32; in test [4], -0.445; in test [5] it was -1.04; in test [6], -0.108. The interaction score is 0.395 in test [7]; -0.445 in [8]; -1.66 in test [9]; -0.702 in test [10]; -0.726 in [11]; -0.862 in [12]. The interaction score in test [13] was -0.617.
As for DEIAALEAKIAALKAKNAALKAKNAALKG [4H384-AA], the interaction score is -1.34 in test [14]; -0.294 in test [15]; 0.75 in test [16]; -1.15 in test [17]; 0.71 in test [18]; -0.0732 in test [19]. The interaction score in [20] is -1.55; in test [21], -1.86; in [22], -1.63; in [23] it was -1.66; in test [24] it was -2.23; in test [25], -2.22. Further, the interaction score in [26] is -1.61; in test [27], -1.04; in test [28], 2.48; in test [29], -1.52; in test [30] it was 0.835; in [31], -1.68. The interaction score in test [32] is 1.52; in test [33], -0.235; in [34], -0.778; in test [35] it was -0.52; in test [36], -1.59; in test [37], 0.295. The interaction score is -1.12 in [38] and -0.334 in test [39].
As for DEIKQLEQKIQRLKQKNQRLKWKNQKLKQ [O12-bP], the interaction score in [40] is -0.0984; in test [41], -0.964; in test [42] it was -0.196; in test [43], -0.827; in test [44], -0.648; in test [45], -1.14. In addition, the interaction score was -1.45 in test [46]; 0.355 in test [47]; -0.621 in test [48]; -1.02 in [49]; -0.715 in [50]; -1.25 in test [51]. Besides, the interaction score in test [52] turned out to be 0.055.
As for DENQELEKKIEELKRKNWELKKKIQELKR [4H1406-bH], the interaction score in test [53] was -0.652; in [54], 1.08; in [55], 0.0362; in [56], 1.11; in [57], -0.136.
